The record followed here is article PMC2940854, “Crystal Structure of the RNA Recognition Motif of Yeast Translation Initiation Factor eIF3b Reveals Differences to Human eIF3b” (PLoS ONE, 2010).

In this assay the target is T1, yeast eIF3j (Hcr1) (yeast, UniProt Q05775 1-265).
T1 construct: source: E. coli Rosetta2 (DE3), pGEX-6P-1, purified (GSTrap, PreScission cleavage, second glutathione step, Superdex S-75)
Kind of assay: ITC; VP-ITC; 20 µL aliquots of 229 µM eIF3b-RRM^76–170 injected into the cell with 10 µM Hcr1; 200 mM NaCl, 10 mM Hepes pH 7.5, 5% glycerol; single binding site model. The note with it: both partners purified.

T1 sequence (Q05775 whole entry): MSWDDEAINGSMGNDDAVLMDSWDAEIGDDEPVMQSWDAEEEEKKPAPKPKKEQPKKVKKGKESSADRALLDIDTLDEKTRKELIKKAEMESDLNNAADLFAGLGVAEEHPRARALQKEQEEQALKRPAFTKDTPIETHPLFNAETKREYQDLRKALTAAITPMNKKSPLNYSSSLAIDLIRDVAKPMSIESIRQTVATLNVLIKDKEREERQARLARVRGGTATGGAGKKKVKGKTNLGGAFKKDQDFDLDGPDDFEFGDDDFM

B1: yeast eIF3b-RRM, residues 76-170 (domain or fragment, UniProt P06103 76-170, looked up)
chain: DQYIVVNGAPVIPSAKVPVLKKALTSLFSKAGKVVNMEFPIDEATGKTKGFLFVECGSMNDAKKIIKSFHGKRLDLKHRLFLYTMKDVERYNSDD
notes: also called eIF3b-RRM^76–170; RRM^76–170; source: E. coli Rosetta2 (DE3), pGEX-6P-1, purified (GSTrap, PreScission cleavage, Superdex S-75)
One may read the Kd as the constant that tells how readily two partners part at equilibrium. For orientation: stoichiometry N means a count of units in the complex or per binding partner. On to B1, for which binding was characterised by a dissociation constant (Kd) of 7.5 ± 0.5 µM, the dH is -9.28 ± 0.217 kcal/mol and the “stoichiometry N” value was around 1.
